US6096504A, “Maize glutathione-S-transferase enzymes” (E. I. du Pont Nemours and Company, priority 1999, dated 2000)

Legend:
Type in all cases: biochemical
Conditions in all cases: purified enzyme, 0.4 mM electrophilic substrate, 4 mM glutathione, 0.1 M MOPS pH 7.0
[1] = GST conjugation of 1,2-epoxy-3-(p-nitrophenoxy)propane with glutathione (HPLC)
From the text: (§1) The GST enzymes, expressed and purified as described in Example 5 were screened for their ability to metabolize a variety of substrates. Substrates tested included the three herbicide electrophilic substrates chlorimuron ethyl, alachlor, and Atrazine, and four model electrophilic substrates, 1-chloro-2,4-dinitrobenzene (CDNB), ethacrynic acid, t-stilbene oxide, and 1,2-epoxy-3-(p-nitrophenoxy)propane. The enzymes were purified as described in Example 5 and used in the following assay.
(§2) For each enzyme, the conjugation reaction with each electrophilic substrate was performed by incubating 0.3 to 30 μg enzyme in 0.1 M MOPS (pH 7.0) containing 0.4 mM of the electrophilic substrate. The reaction was inititated by the addition of glutathione to a final concentration of 4 mM. After 5 to 30 min, the reaction was terminated by the addition of 45 μL acetonitrile, microfuged for 10 min to remove precipitated protein, and then the supernatent was removed and added to 65 μl of water. This sample was chromatographed on a Zorbax C8 reverse phase HPLC column (3 μm particle size, 6.2 mm×8 cm) using a combination of linear gradients (flow=1.5 mL/min) of 1% H3 PO4 in water (solvent A) and 1% H3 PO4 in acetonitrile. The gradient started with 5% solvent B, progressing from 5% to 75% solvent B between 1 and 10 min, and from 75% to 95% solvent B between 10 and 12 min. Control reactions without enzyme were performed to correct for uncatalyzed reaction. Quantitation of metabolites were based on an assumption that the extinction coefficient of the conjugate was identical to that of the electrophilic substrate.

[2] = GST conjugation of alachlor with glutathione (HPLC)
From the text: as §1, §2

[3] = GST conjugation of chlorimuron ethyl with glutathione (HPLC)
From the text: as §1, §2

[4] = GST conjugation of Atrazine with glutathione (HPLC)
From the text: as §1, §2

[5] = GST conjugation of t-stilbene oxide with glutathione (HPLC)
From the text: as §1, §2

[6] = GST conjugation of ethacrynic acid with glutathione (HPLC)
From the text: as §1, §2

[7] = GST conjugation of CDNB with glutathione (HPLC)
From the text: as §1, §2

Molecule	activity of enzyme with 1,2-epoxy-3-(p-nitrophenoxy)propane [1] [nmol/min/mg]	activity of enzyme with Alachlor [2] [nmol/min/mg]	activity of enzyme with Chlorimuron-Ethyl [3] [nmol/min/mg]	activity of enzyme with Atrazine [4] [nmol/min/mg]	activity of enzyme with t-Stilbene Oxide [5] [nmol/min/mg]	activity of enzyme with Ethacrynic Acid [6] [nmol/min/mg]	activity of enzyme with CDNB [7] [nmol/min/mg]
bms1.pk0023.g8: maize class I GST enzyme encoded by cDNA clone, expressed in E. coli (protein) MAPPMKVYGWAVSPWMARALVCLEEAGADYEIVPMSRCGGDHRRPEHLAKNPFGEIPVLEDGDLTLYQSRAIARYVLRKLKPELLREGDLEGSAMVDAWMEVEAHHMEPALWPIIRHSIIGQYVGRERDHQAVIDENLDRLRKVLPAYEARLSVCKYLVGDDISAADLCHFGFMRYFMATEYAGLVDAYPHVKAWWDALLARPSVQKVMAGMPPDFGYASGNIP	0	0	0.2	0.00	0.00	13	15
ceb1.pk0017.a5: maize class I GST enzyme encoded by cDNA clone, expressed in E. coli (protein) MAAPVTVYGPMLSPAVARVAACLLEKDVPFQIEPVDMSKGEHKSPSFLKLQPFGQVPAFKDHLTTVFESRAICRYICDQYADSGNQALFGKKEDGAVGRAAIEQWIESEGQSFNPPSLAIIFQLAFAPMMGRTTDLAVVEQNEAKLAKVLDVYDQRLGESQYFAGDDFSPGRPCALAQCRFPCEQNQQGWLDHREKESC	0	0	0.1	0.00	0.00	5	15
ceb5.pk0051.f8: maize class III GST enzyme encoded by cDNA clone, expressed in E. coli (protein) MAGETKKGLVLLDFWVSPFGQRCRIALAEKGIAYEYSEQELLGGAKSDILLRSNPVHKKIPVLLHDGRPVCESLVILEYLEEAFPEASPRLLPDAAYARAQARFWAAYSDKVYKAGTRLWKLRGDARAQARAEIVQVVRNLDGELGDKAFFGGEAFGFVDVALVPFVPWLPSYERYGDFSVAEIAPRLAAWARRCAQRESVARTLHPPEKVDEFINLLKKTYGIE	14	27	1.9	0.08	0.02	117	2136
cs1.pk0010.c5: maize class I GST enzyme encoded by cDNA clone, expressed in E. coli (protein) MAAGLQVFGQPASTDVARVLTCLFEKKLEFELVRIDTFKTHHRLPEFIRLRDPNGQVTFKHGDKTLVDSRDICRYVCNQFPNYGNKSLYGSGALERASIEQWLQAEAQNFGPPSSALVFQLAFVPHLSHLGVRQDPAVIAENEDKLKQVLDVYDEILSKNEYLAGDEFTLADLSHLPNSHYIVNTERGRKLFTNKKNVAKWYDRLSKRETWVQVVKMQKEHPGAFK	0	0	0.1	0.00	0.00	9	30
ceb5.pk0049.a11: maize class III GST enzyme encoded by cDNA clone, expressed in E. coli (protein) MAEEKKQGLQLLDFWVSPFGQRCRIALDEKGLAYEYLEQDLRNKSELLLRANPVHKKIPVLLHDGRPVCESLVIVQYLDEAFPEAAPALLPADPYARAQARFWADYVDKKLYDCGTRLWKLKGDGQAQARAEMVEILRTLEGALGDGPFFGGDALGFVDVALVPFTSWFLAYDRFGGVSVEKECPRLAAWAKRCAERPSVAKNLYPPEKVYDFVCGMKKRLGIE	30	18	0.4	0.01	0.01	102	3939
m.15.5.d06.sk20: maize class II GST enzyme encoded by cDNA clone, expressed in E. coli (protein) MAEVEATVGRLMLYSYWRSSCSHRARIALNLKGVDYEYKAVNLLKGEQSDPEFVKLNPMKFVPALVDGSSVIGDSYAITLYLEDKYPEPPLLPQDLQKKALNHQIASIVASGIQPLHNLTVLRFIDQKVGAGESVLWTQQQIERGFTAIENLIQLKGCAGKYATGDEVQLADVFLAPQIYAAIERTKIDMSNYLTLARLHSEYMSHPAFEAALPGKQPDAPSSS	1	0	0.1	0.00	0.00	17	45
